Laboratory results published in paper PMC12384205.

Target: RGD-binding integrins on HeLa cells (α5β1, αvβ5, αvβ3) (human (endogenous in HeLa))
Test: resonant waveguide grating (RWG) live-cell competitive adhesion assay; sensor coated with 50% PPR (RGD peptide); HeLa cells (8000 per well) with soluble S1 or BSA in HEPES-HBSS, 90 min; normalised adhesion fitted with a sigmoidal curve; Kd calculated from the IC50 with [RGD] 2.39 µM and Kd^RGD 9.4 µM

recombinant human coronavirus SARS-CoV-2 Spike Glycoprotein S1 (Active)
IC50: 1400 nM
Kd: 1120 nM
